Patent US20190256592A1 (GENAGON THERAPEUTICS, published 2019)
Blank lines part the entries; values can stand above or below the molecule they belong to.

Columns and labels:
[1] = target: Cleft Lip and Palate Transmembrane protein 1 (CLPTM1), human, native, in cells (human) (UniProt O96005); assay: flow cytometry on permeabilised O-876 cells expressing native CLPTM1
[2] = target: Cleft Lip and Palate Transmembrane protein 1 (CLPTM1), human, native, in cells (human) (UniProt O96005); assay: flow cytometry on permeabilised O-876 cells expressing native CLPTM1, 10x dilution series
[3] = target: T1, …; assay: ELISA: biotinylated CLPTM1 peptide on streptavidin plate, GDF15 at 100 ng/ml, detected with goat anti-GDF15 and anti-goat-HRP
T1 sequence (peptide, biotinylated; C-terminal glycine not from CLPTM1): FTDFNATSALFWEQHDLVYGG

[4] = target: T2, …; assay: as above; remark: listed apart in the source
T2 sequence (peptide, biotinylated; C-terminal glycine not from CLPTM1): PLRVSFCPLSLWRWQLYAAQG

[5] = target: T3, …; assay: as above; remark: listed apart in the source
T3 sequence (peptide, biotinylated; C-terminal glycine not from CLPTM1): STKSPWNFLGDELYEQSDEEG

[6] = target: T4, …; assay: as above; remark: listed apart in the source
T4 sequence (peptide, biotinylated; C-terminal glycine not from CLPTM1): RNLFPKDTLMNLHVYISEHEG

[7] = target: T5, …; assay: as above; remark: listed apart in the source
T5 sequence (peptide, biotinylated; C-terminal glycine not from CLPTM1): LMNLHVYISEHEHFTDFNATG

AAAQEADGARSAVVAAGGGSG = target: T6, AAAQEADGARSAVVAAGGGSG (biotinylated; C-terminal glycine not from CLPTM1); assay: as above
T6 construct: also called G1
T6 peptide: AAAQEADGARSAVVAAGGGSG
Description: (§1) Biotinylated synthetic peptide fragments from CLPTM1 (JPT peptides, Germany) were immobilized in a streptavidin 96 well plate (#15500 Pierce) at 1 μM in PBS overnight at +4° C. Plate was washed 4 times in 300 μl PBS with 0.05% Tween-20 (wash buffer). The plate was blocked with PBS 1% BSA and 0.05% Tween-20 (blocking buffer) for 1.5 hours at room temperature then washed 4 times in wash buffer. GDF15 ligand (Abcam) was added in blocking buffer at 100 ng/ml and incubated at room temperature for 2 hours. The plate was then washed 8 times in 300 μl wash buffer with 2×NaCl. A GDF15 antibody as added at 1 μg/ml (R&D systems goat polyclonal) and incubated in block buffer for 1 hour at room temperature followed by washing with 4×300 μl wash buffer. HAF017 anti-goat-HRP antibody was added and incubated for 1 hour in blocking buffer followed by a wash. TMB substrate was added and stopped after 15 minutes with H2SO4. OD 450-620 was measured in an ELISA reader.
(§2) Polypeptides having sequences set forth in SEQ ID NOs:10-33 were assessed for binding to GDF15 (corresponding to the polypeptides indicated from left to right in FIG. 2 and shown in Table 1). These proteins were synthesised with a C-terminal glycine residue that is not present in the corresponding sequences from CLPTM1.

YEQSDEEQDSVKVALLETNPG = target: T7, YEQSDEEQDSVKVALLETNPG (biotinylated; C-terminal glycine not from CLPTM1); assay: as above
T7 construct: also called G18
T7 peptide: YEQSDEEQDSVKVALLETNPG
Description: as §1, §2

NDYWNLQKDYYPINESLASLG = target: T8, NDYWNLQKDYYPINESLASLG (biotinylated; C-terminal glycine not from CLPTM1); assay: as above
T8 construct: also called G15
T8 peptide: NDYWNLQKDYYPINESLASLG
Description: as §1, §2

SDGCYEHFAELDIPQSVQQNG = target: T9, SDGCYEHFAELDIPQSVQQNG (biotinylated; C-terminal glycine not from CLPTM1); assay: as above
T9 construct: also called G8
T9 peptide: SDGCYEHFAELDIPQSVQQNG
Description: as §1, §2

[8] = target: T10, CLPTM1 peptide G10 (residues 182-201 with C-terminal glycine) (human, biotinylated (position not given)); assay: as above
T10 construct: Biotinylated synthetic peptide on a streptavidin plate; The C-terminal glycine is not in CLPTM1
T10 peptide: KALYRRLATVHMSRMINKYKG
Description: as §1, §2

RRRFQKTKNLLTGETEADPEG = target: T11, RRRFQKTKNLLTGETEADPEG (biotinylated; C-terminal glycine not from CLPTM1); assay: as above
T11 construct: also called G11
T11 peptide: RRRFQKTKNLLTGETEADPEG
Description: as §1, §2

RIFIIWAISSWFRRGPAPQDG = target: T12, RIFIIWAISSWFRRGPAPQDG (biotinylated; C-terminal glycine not from CLPTM1); assay: as above
T12 construct: also called G4
T12 peptide: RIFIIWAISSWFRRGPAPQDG
Description: as §1, §2

[9] = target: T13, CLPTM1 peptide G21 (residues 273-292 with C-terminal glycine) (human, biotinylated (position not given)); assay: as above
T13 construct: Biotinylated synthetic peptide on a streptavidin plate; The C-terminal glycine is not in CLPTM1
T13 peptide: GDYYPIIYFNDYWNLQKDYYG
Description: as §1, §2

SALFWEQHDLVYGDWTSGENG = target: T14, SALFWEQHDLVYGDWTSGENG (biotinylated; C-terminal glycine not from CLPTM1); assay: as above
T14 construct: also called G7
T14 peptide: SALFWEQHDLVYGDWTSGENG
Description: as §1, §2

QNPPAQPAPNAWQVIKGVLFG = target: T15, QNPPAQPAPNAWQVIKGVLFG (biotinylated; C-terminal glycine not from CLPTM1); assay: as above
T15 construct: also called G3
T15 peptide: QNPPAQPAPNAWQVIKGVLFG
Description: as §1, §2

WQVIKGVLFRIFIIWAISSWG = target: T16, WQVIKGVLFRIFIIWAISSWG (biotinylated; C-terminal glycine not from CLPTM1); assay: as above
T16 construct: also called G22
T16 peptide: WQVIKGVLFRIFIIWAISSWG
Description: as §1, §2

QAGPGGAPRVASRNLFPKDTG = target: T17, QAGPGGAPRVASRNLFPKDTG (biotinylated; C-terminal glycine not from CLPTM1); assay: as above
T17 construct: also called G5
T17 peptide: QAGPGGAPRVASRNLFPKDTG
Description: as §1, §2

[10] = target: T18, CLPTM1 peptide G20 (residues 292-311 with C-terminal glycine) (human, biotinylated (position not given)); assay: as above
T18 construct: Biotinylated synthetic peptide on a streptavidin plate; The C-terminal glycine is not in CLPTM1
T18 peptide: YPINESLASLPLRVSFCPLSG
Description: as §1, §2

SGQVTSNGSIGRDPPAETQPG = target: T19, SGQVTSNGSIGRDPPAETQPG (biotinylated; C-terminal glycine not from CLPTM1); assay: as above
T19 construct: also called G2
T19 peptide: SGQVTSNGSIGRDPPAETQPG
Description: as §1, §2

LWRWQLYAAQSTKSPWNFLGG = target: T20, LWRWQLYAAQSTKSPWNFLGG (biotinylated; C-terminal glycine not from CLPTM1); assay: as above
T20 construct: also called G19
T20 peptide: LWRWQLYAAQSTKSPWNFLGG
Description: as §1, §2

[11] = target: T21, CLPTM1 peptide G9 (residues 162-181 with C-terminal glycine) (human, biotinylated (position not given)); assay: as above
T21 construct: Biotinylated synthetic peptide on a streptavidin plate; The C-terminal glycine is not in CLPTM1
T21 peptide: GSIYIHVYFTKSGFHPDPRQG
Description: as §1, §2

[12] = target: T22, CLPTM1 peptide G14 (residues 262-281 with C-terminal glycine) (human, biotinylated (position not given)); assay: as above
T22 construct: Biotinylated synthetic peptide on a streptavidin plate; The C-terminal glycine is not in CLPTM1
T22 peptide: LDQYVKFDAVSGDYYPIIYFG
Description: as §1, §2

MIKRAEDYGPVEVISHWHPNG = target: T23, MIKRAEDYGPVEVISHWHPNG (biotinylated; C-terminal glycine not from CLPTM1); assay: as above
T23 construct: also called G12
T23 peptide: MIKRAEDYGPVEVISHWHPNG
Description: as §1, §2

[13] = target: T24, Cleft Lip and Palate Transmembrane protein 1 (CLPTM1), human, native, in cells (human, UniProt O96005 2-669); assay: flow cytometry on permeabilised O-876 cells expressing native CLPTM1
T24 construct: Native CLPTM1 as expressed by cells; also called CLPTM1 receptor
T24 sequence: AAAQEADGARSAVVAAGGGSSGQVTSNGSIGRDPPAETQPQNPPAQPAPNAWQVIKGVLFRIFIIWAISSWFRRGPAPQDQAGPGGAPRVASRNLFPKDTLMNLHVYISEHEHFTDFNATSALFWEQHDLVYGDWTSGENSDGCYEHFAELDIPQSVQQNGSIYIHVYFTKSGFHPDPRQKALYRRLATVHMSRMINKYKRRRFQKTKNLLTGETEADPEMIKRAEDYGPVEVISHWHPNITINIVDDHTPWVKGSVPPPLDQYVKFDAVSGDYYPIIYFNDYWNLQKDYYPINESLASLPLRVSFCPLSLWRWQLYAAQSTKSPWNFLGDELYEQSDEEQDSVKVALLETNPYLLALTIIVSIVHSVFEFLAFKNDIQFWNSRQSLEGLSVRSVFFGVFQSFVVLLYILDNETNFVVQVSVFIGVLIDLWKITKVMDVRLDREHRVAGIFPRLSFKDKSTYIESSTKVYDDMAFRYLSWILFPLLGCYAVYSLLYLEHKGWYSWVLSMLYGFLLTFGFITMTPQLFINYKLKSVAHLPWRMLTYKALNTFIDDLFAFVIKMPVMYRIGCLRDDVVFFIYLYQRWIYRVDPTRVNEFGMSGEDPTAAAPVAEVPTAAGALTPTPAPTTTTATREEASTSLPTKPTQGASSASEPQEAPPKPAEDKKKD
Description: (§3) Affinity of antibodies was determined by finding the half-maximal binding on the native target in a flow cytometry assay. Since the native target is found inside most cells and rarely on the cell surface, the assay was performed using plasma membrane-permeabilized cells, an intra-cellular staining protocol. Using the native target is more applicable when evaluating and comparing various antibodies as it is the true antigen to be bound in a therapeutic setting in vivo. 0-876 cells were permeabilized with BD-fix and permeabilization buffer (554722 BD-Biosciences). Antibody at various concentrations was incubated with cells for 30 minutes at +4 C, then washed twice with wash buffer (BD-Biosciences 554723). Secondary antibodies a-mouse IgG-PE (Molecular Probes) was used for mouse monoclonal antibodies according to manufacturer's instructions and a-rabbit-IgG-PE (Molecular Probes) for rabbit monoclonal antibody (Abcam ERP8800). Three washes followed and fluorescence intensity in cells was quantified by FACS Cantoll in PBS with cells in 2% FCS buffer.
(§4) The assay was performed on 0-876 cancer cell line.

[14] = target: T24, Cleft Lip and Palate Transmembrane …; assay: flow cytometry on permeabilised O-876 cells expressing native CLPTM1; Kd defined by half maximal binding
Description: as §3, §4

percent of maximal binding at 1 µg/mL [1]: > 50%
percent of maximum binding at 0.1 µg/ml [2]: > 50%
Molecule: AbCam anti-CLPTM1 rabbit monoclonal antibody EPR8800 (RabMab)

percent of maximum binding at 1 µg/ml [2]: < 50%
Molecule: Santa Cruz mouse anti-human CLPTM1 monoclonal antibody (G-7) (sc-374619)

OD ELISA 450nm - 620nm [3]: 0.061 OD
OD ELISA 450nm - 620nm [4]: 0.063 OD
OD ELISA 450nm - 620nm [5]: 0.053 OD
OD ELISA 450nm - 620nm [6]: 0.055 OD
OD ELISA 450nm - 620nm [7]: 0.058 OD
OD ELISA 450nm - 620nm (AAAQEADGARSAVVAAGGGSG): 0.022 OD
OD ELISA 450nm - 620nm (YEQSDEEQDSVKVALLETNPG): 0.022 OD
OD ELISA 450nm - 620nm (NDYWNLQKDYYPINESLASLG): 0.038 OD
OD ELISA 450nm - 620nm (SDGCYEHFAELDIPQSVQQNG): 0.024 OD
OD ELISA 450nm - 620nm [8]: 0.197 OD
OD ELISA 450nm - 620nm (RRRFQKTKNLLTGETEADPEG): 0.021 OD
OD ELISA 450nm - 620nm (RIFIIWAISSWFRRGPAPQDG): 0.026 OD
OD ELISA 450nm - 620nm [9]: 0.507 OD
OD ELISA 450nm - 620nm (SALFWEQHDLVYGDWTSGENG): 0.034 OD
OD ELISA 450nm - 620nm (QNPPAQPAPNAWQVIKGVLFG): 0.042 OD
OD ELISA 450nm - 620nm (WQVIKGVLFRIFIIWAISSWG): 0.023 OD
OD ELISA 450nm - 620nm (QAGPGGAPRVASRNLFPKDTG): 0.034 OD
OD ELISA 450nm - 620nm [10]: 0.22 OD
OD ELISA 450nm - 620nm (SGQVTSNGSIGRDPPAETQPG): 0.009 OD
OD ELISA 450nm - 620nm (LWRWQLYAAQSTKSPWNFLGG): 0.033 OD
OD ELISA 450nm - 620nm [11]: 0.149 OD
OD ELISA 450nm - 620nm [12]: 0.14 OD
OD ELISA 450nm - 620nm (MIKRAEDYGPVEVISHWHPNG): 0.028 OD
B1: Growth and Differentiation Factor 15 (GDF15) (ligand, UniProt Q99988 197-308, looked up)
chain: ARNGDHCPLGPGRCCRLHTVRASLEDLGWADWVLSPREVQVTMCIGACPSQFRAANMHAQIKTSLHRLKPDTVPAPCCVPASYNPMVLIQKTDTGVSLQTYDDLLAKDCHCI
notes: Bought protein (Abcam); also called MIC-1; GDF15 ligand (Abcam)

EC50 [13]: < 1 µg/mL
Kd [14]: < 1 nM
B2: Mouse monoclonal anti-CLPTM1 antibody 7G12 (antibody, V domains shown)
VH: QVQLQQSGTELVRPGTSVKVSCKASGYAFTNYLIEWVKQRPGQGLEWIGVINPGSGGTRYNEKFKGKATLTADKSSTTAHMQLSSLTSDDSAVYCARWGGNYSGYAMDYWGQGTSVTVSS
VL: QIVLTQSPVIMSASPGEKVTITCSASSSVSYMHWFQQKPGTSPKLWIYSTSNLASGVPARFSGSGSGTSYSLTISRMEAEDAATYYCQQRSSYPPTFGAGTKL
notes: Mouse IgG1 heavy chain, kappa light chain; also called mAb 7G12; 7G12hyb
